Target: T1, complement factor C1q (UniProt P02745 23-245; P02746 28-253; P02747 29-245)
T1 construct: also called Clq; recombinant complement factor C1q
Test: flow cytometry: BT-474 cells with 10 µg/mL antibody, then 10 µg/mL C1q, detected with PE-labeled anti-C1q antibody
Method: About 3×10⁵ BT-474 cells were incubated with 10 μg/mL of indicated antibody on ice in RPMI 1640 supplemented with 10% FCS. After 30 min. incubation on ice 10 μg/mL C1q (Sigma Aldrich, Cat. No. C1740) was added. The incubation was continued thereafter for an additionally 20 min. on ice. After washing the cells were resuspended in 200 μL medium and counterstained with a PE-labeled anti-C1q antibody (Cedarlane, Cat. No. CL7611PE-SP). After an incubation time of 30 min. on ice cells were washed twice and analyzed on a FACS Canto

T1 sequence (P02745 23-245 limits assumed, chain 1 of 3): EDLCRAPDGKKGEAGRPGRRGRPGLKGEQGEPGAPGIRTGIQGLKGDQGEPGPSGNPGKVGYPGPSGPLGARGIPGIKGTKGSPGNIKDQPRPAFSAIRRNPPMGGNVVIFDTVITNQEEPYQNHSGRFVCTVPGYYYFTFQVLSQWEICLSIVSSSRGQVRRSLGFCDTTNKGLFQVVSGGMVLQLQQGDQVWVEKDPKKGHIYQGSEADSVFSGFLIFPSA
T1 sequence (P02746 28-253 limits assumed, chain 2 of 3): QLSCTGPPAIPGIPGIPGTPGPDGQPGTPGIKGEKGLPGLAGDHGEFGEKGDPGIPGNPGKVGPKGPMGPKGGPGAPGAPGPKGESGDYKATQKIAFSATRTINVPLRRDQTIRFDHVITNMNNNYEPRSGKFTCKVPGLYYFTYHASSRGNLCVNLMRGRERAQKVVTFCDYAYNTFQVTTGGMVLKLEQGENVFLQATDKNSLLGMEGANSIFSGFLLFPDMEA
T1 sequence (P02747 29-245 limits assumed, chain 3 of 3): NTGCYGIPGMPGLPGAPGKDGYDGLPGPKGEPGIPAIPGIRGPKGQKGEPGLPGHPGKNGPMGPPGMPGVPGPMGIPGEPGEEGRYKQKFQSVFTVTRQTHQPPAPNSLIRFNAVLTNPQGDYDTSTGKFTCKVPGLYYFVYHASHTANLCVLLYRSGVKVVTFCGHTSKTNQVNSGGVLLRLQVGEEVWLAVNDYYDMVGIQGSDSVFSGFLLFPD

B1: bispecific anti-HER2 antibody, CrossMab format (bispecific antibody, human IgG1, kappa)
heavy 1: not shown
heavy 2: not shown
light 1: DIQLTQPPSVSVAPGQTARITCGASQDVSTAVAWYQQKPGQAPVLVVYSASFLYSGIPSRFSGSRSGTDFTLTISRVEAGDEADYYCQQHYTTPPTFGTGTKVTVLRTVAAPSVFIFPPSDEQLKSGTASVVCLLNNFYPREAKVQWKVDNALQSGNSQESVTEQDSKDSTYSLSSTLTLSKADYEKHKVYACEVTHQGLSSPVTKSFNRGEC
light 2: DIQMTQSPSSLSASVGDRVTITCKASQDVSIGVAWYQQKPGKAPKLLIYSASYRYTGVPSRFSGSGSGTDFTLTISSLQPEDFATYYCQQYYIYPYTFGQGTKVEIKSSASTKGPSVFPLAPSSKSTSGGTAALGCLVKDYFPEPVTVSWNSGALTSGVHTFPAVLQSSGLYSLSSVVTVPSSSLGTQTYICNVNHKPSNTKVDKKVEPKSC
notes: CrossMab format with four different chains
PE-signal (geomean): 489 geomean PE-signal

B2: bispecific anti-HER2 antibody, common light chain (bispecific antibody, human IgG1, kappa)
light: DIQMTQSPSSLSASVGDRVTITCKASQDVSTAVAWYQQKPGKAPKLLIYSASFRYTGVPSRFSGSRSGTDFTLTISSLQPEDFATYYCQQHYTTPPTFGQGTKVEIKRTVAAPSVFIFPPSDEQLKSGTASVVCLLNNFYPREAKVQWKVDNALQSGNSQESVTEQDSKDSTYSLSSTLTLSKADYEKHKVYACEVTHQGLSSPVTKSFNRGEC
heavy 1: not shown
heavy 2: not shown
notes: Knob-into-hole bispecific antibody with a common light chain
PE-signal (geomean): 1440 geomean PE-signal

B3: bispecific anti-HER2 antibody, common light chain, glycoengineered (bispecific antibody, human IgG1, kappa)
light: DIQMTQSPSSLSASVGDRVTITCKASQDVSTAVAWYQQKPGKAPKLLIYSASFRYTGVPSRFSGSRSGTDFTLTISSLQPEDFATYYCQQHYTTPPTFGQGTKVEIKRTVAAPSVFIFPPSDEQLKSGTASVVCLLNNFYPREAKVQWKVDNALQSGNSQESVTEQDSKDSTYSLSSTLTLSKADYEKHKVYACEVTHQGLSSPVTKSFNRGEC
heavy 1: not shown
heavy 2: not shown
notes: The glycan change is not described
PE-signal (geomean): 1040 geomean PE-signal

Reference: patent US20180017572A1 (Hoffmann-La Roche, published 2018)
